The target of test [1] is T1, Polyhistidine (His) tagged ERα ligand binding domain (amino acids 302–552) (UniProt P03372 302-552).
T1 construct: Detected on the array by a penta-His Alexa Fluor 488 antibody; Always tested with E2, DES or solvent (2% DMSO); also called ERα-LBD; source: partly purified from Escherichia coli (Qiagen)
T1 sequence (looked up): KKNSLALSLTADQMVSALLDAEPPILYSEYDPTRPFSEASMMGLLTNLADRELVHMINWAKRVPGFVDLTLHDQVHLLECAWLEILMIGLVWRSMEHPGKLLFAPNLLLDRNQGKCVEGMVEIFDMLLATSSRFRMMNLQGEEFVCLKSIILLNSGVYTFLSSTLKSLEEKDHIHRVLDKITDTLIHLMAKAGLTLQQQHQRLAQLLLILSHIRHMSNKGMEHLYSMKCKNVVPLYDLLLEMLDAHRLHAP
As to the kind of experiment: peptide or protein array; MARCoNI, PamChip peptide microarray: coregulator motif peptides immobilised; His-ERα-LBD 10 nM (partly purified) in solution with E2 (10^-12 to 10^-5 M), detected with penta-His Alexa Fluor 488 antibody 25 nM; 20 °C; 20 mM Tris-HCl pH 7.5, 500 mM NaCl, 0.2% BSA, 0.05% Tween 20, 2% DMSO. Particulars: both partners purified.

The target in test [2] is T1, Polyhistidine (His) tagged ERα ligand …. The test is described as above. Conditions: both partners purified. The source holds these as a separate data set.

From publication PMC7505815, “Estrogen receptor alpha (ERα)–mediated coregulator binding and gene expression discriminates the toxic ERα agonist diethylstilbestrol (DES) from the endogenous ERα agonist 17β-estradiol (E2)” (Cell Biology and Toxicology, 2020) come the findings set out here.

B1: NCOA1_1421_1441 (peptide, UniProt Q15788 1421-1441, looked up)
peptide: TSGPQTPQAQQKSLLQQLLTE
notes: Immobilised on the PamChip; source: bought: PamChip peptide microarray, PamGene International BV
With B1, in test [1], the binding result is on record as “binds”.

B2: NCOA1_677_700 (peptide, UniProt Q15788 677-700, looked up)
peptide: PSSHSSLTERHKILHRLLQEGSPS
notes: as for B1
For the molecule B2, in test [1], the binding result was “binds”.

B3: NCOR1_662_684_C662S (peptide, UniProt O75376 662-684, looked up)
peptide: SKNFYFNYKRRHNLDNLLQQHKQ
notes: as for B1
As to B3, in test [2], the binding result is recorded as “binds”.

B4: CBP_2055_2077 (peptide, UniProt Q92793 2055-2077, looked up)
peptide: SVQPPRSISPSALQDLLRTLKSP
notes: as for B1
B4: the binding result in test [2] is given as “binds”.

B5: ANDR_10_32 (peptide, UniProt P10275 10-32, looked up)
peptide: VYPRPPSKTYRGAFQNLFQSVRE
notes: Immobilised on the PamChip; also called Androgen receptor–related coregulator motif; source: bought: PamChip peptide microarray, PamGene International BV
On to B5, for which, in test [1], the binding result is reported as “binds”.

B6: TRIP4_149_171_C171S (peptide, UniProt Q15650 149-171, looked up)
peptide: FVNLYTREGQDRLAVLLPGRHPS
notes: as for B1
As for B6, in test [2], the binding result was “binds”.

B7: NRIP1_173_195_C177S (peptide, UniProt P48552 173-195, looked up)
peptide: KDLRSYGVASSHLKTLLKKSKVK
notes: as for B1
B7: in test [2], the binding result is “binds”.

B8: NRIP1_173_195 (peptide, UniProt P48552 173-195, looked up)
peptide: KDLRCYGVASSHLKTLLKKSKVK
notes: as for B1
B8: in test [2], the binding result is “binds”.

B9: TIF1A_373_395_C394S (peptide, UniProt O15164 373-395, looked up)
peptide: TALLYSKRLITYRLRHLLRARSD
notes: as for B1
Regarding B9, the binding result in test [2] is given as “binds”.

B10: NCOA2_628_651 (peptide, UniProt Q15596 628-651, looked up)
peptide: GQSRLHDSKGQTKLLQLLTTKSDQ
notes: as for B1
With B10, the binding result in test [1] is “binds”.
